From a protein production outcome set (Wang et al. 2014)

Assay: label from the status in PepcDB records
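Further: failed if final PepcDB status was selected cloned or expressed and not failed if soluble or beyond.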

| Sequence | protein production |
| --- | --- |
| MKPPADNNKEGAESHKLESESKPIWKSMSMFLVPLLLSNVLQSVGQLFGMVVVGRWLGVNDLAAISAFFPLFFLLVSFVIGIGSGSSILIGQAFGAKNEDRLKAIVGTTLTFTFIIGVLLAIIGSIFAMDIMRLMGTPENIIEISVHYARILFISMPVLFLYFAYTTFMRGTGDSKTPFYFLIVSTALNMILLPILIFGWLGAPKLDVYGAAYASVISTVITFIVMLVYLKKKNHPLQLDGTVRKYLRMDGELLKLLLRLGIPASINMILVSLSEIAVIAFVNRYGSDATAAYGVVNQVASYVQMPAVSLGITVSIFAAQSIGANQFDRLQKVVKAGIIMNYVIGGVLISLIYVFSRDILSLFLTSQTTIEIAHSLVMITLWSYLIFGHAQIISATMRASGTVLWPTVIGVVSIWLVEVPVAYYLSYHTSLGIEGIWIGYPAAFIVSLILQYAYYKLSWQKKRITRLVS | not failed |
| MSEAERAGASRQDKSGRLLAGRYRLGDVLGRGGMGTVWRAEDETLGRTVAVKELRFPTSIDEDEKRRLITRTLREAKAIARIRNNSAVTVFDVVDEDNRPWIVMELVEGKSLAEAIREDGLLEPKRAAEVGLAILDVLRAAHREGILHRDVKPSNVLIAEDGRVVLTDFGIAQVEGDPSITSTGMLVGAPSYISPERARGHKPGPAADLWSLGGLLYASVEGVPPYDKGSAIATLTAVMTEPLEEPKNAGPLRSVIYGLLAKDPEQRLDDAGARAMLNEVLHAPQPKEPEPVDATRVVALPPVPEEGTGKGSSGGSGAKRGEEAADRFRGALRSVRKAAGAATASAAARAKSGGTDVSGGTGAAGAGTSSAGSSASASAPAPGKPGAAAVGKPNPSSAGKPGSSAAATPAGTGSGVGQGTAVGGGGRESAVVGSNSGPVKPSSGWPVVPEPDRPPRSVPRAPLTDVVPRRTLVIVAVVVVLAVLGVVLALTLGGDDGSSKDNKGSSDTKAAASSGTSSGTTAGSSGTPKAGGSGSGSGGTHTDSGSKDNTGTGSDEQETDDSSSAGTASGSGGSDDSGSGSGDSSVKTYKSSQGFSIGLPKGWKYQSTGAAGARFTGPDGQKLLVGWTTTPKDDPVADWKNQEQYMVRSQYKRIRIEQVDYRGWNTADWEFTYTEGGTKYRSIDRGFVVNAHQGYALMYTAKASEWDSDLRKDTWQTLAKTFQPKS | failed |
| MPAIMPMLWKQPFGNNLWGLKMKKVEKLLIIGIVLISSILLGAMTLAKPAQANASIVIVIDNEVKHRIPLMVEEEMQTYEFKFGEQTGYLEVKNGKVRMLEMPKEICPEGICSETGWIARSSQAIVCLPNKIIVTIQGLDDKNDEIL | failed |
| MADKEAAFDDAVEERVINEEYKIWKKNTPFLYDLVMTHALEWPSLTAQWLPDVTRPDGKDFSIHRLVLGTHTSDEQNHLVIASVQLPNDDAQFDASHYDSEKGEFGGFGSVSGKIEIEIKINHEGEVNRARYMPQNPCIIATKTPSCDVLVFDYTKHPSKPDPSGECNPDLRLRGHQKEGYGLSWNPNLSGNLLSASDDHTICLWDISAVPKEGKVVDAKTIFTGHTAVVEDVSWHLLHESLFGSVADDQKLMIWDTRSNNTSKPSHSVDAHTAEVNCLSFNPYSEFILATGSADKTVALWDLRNLKLKLHSFESHKDEIFQVQWSPHNETILASSGTDRRLNVWDLSKIGEEQSPEDAEDGPPELLFIHGGHTAKISDFSWNPNEPWVICSVSEDNIMQVWQMAENIYNDEDTEGSVDPEGQGS | not failed |
| VMEIEARLEDVRQRIADVAEKSGRKAADVALVAVSKTFDAEAIQPVIDAGQRVFGENRVQEAQGKWPALKEKTSDIELHLIGPLQSNKAADAVALFDVVESIDREKIARALSEECARQGRSLRFYVQVNTGLEPQKAGIDPRETVAFVAFCRDELKLPVEGLMCIPPAEENPGPHFALLAKLAGQCGLEKLSMGMSGDFETAVEFGATSVRVGSAIFGSR | not failed |
| VQTPALIIVTGHPATGKTTLSQALATGLRLPLLSKDAFKEVMFDGLGWSDREWSRRVGATAIMMLYHTAATILQSGQSLIMESNFRVDLDTERMQNLHTIAPFTPIQIRCVASGDVLVERILSRIAQGARHPGHCDDRSPADLELVRSRGDIPPLPLGGPLLTVDTTFPEQIDMNAIVQWVRQHLQSGTAFL | not failed |
| MIIRNGCLEDLQQVISIEQINFSEAEAASKKAMQERLTIMTDTFLVAEINGRLAGYIEGPVIKGRYLTDDLFHKVSEFPVRVGGFIGITSLSIHPDFKGQGIGTALLAAMKDLVVSQERDGISLTCHDDLISFYEMNGFKDEGESDSKHGGSLWYNMIWNNPTRSIC | failed |
| MNRKLRRANLKASEPTPHETGNVINYMRQGRYAEAAHLAKGLTERFPDHGFGWKILGICTLLLGQNGDALPLFLKAAGLLPDDPDIHCNIGIIYYELNQLNEAEYYCRYALKLRPNDAIAHNNLGNILSSLGRLDEAEACFRRAIENNPDLAQAHYNLGSALQALGRLEEAESCYRRATAIRPTYEEAYASLGNVLKEMGRLDEALESWKLSLAHQEDWTNALRRLTNPLLMDGDLTRGPEYPAADAAEGQPRQLSSHPAAASVESLDRKYRVPSHGHDGSAEAGAVAGRDENAPRPLRIVLVYPPLWQIPSADLAVPEGMPFGPPATAGGPVAISRELKTITQGVLSIAAQAKKAGHDVRVYNLFNAPWADIVALIAGTGADVYGVSAYNSNRRGMGALCALIRQYHPHAHITVGGPFATTLPLETLRYYRAIDTVVVGEGEETFMELLDHIRSHRPAVGIPGTAWRNGDEVALGPVRPRIGDLDTLASHFDYYSSNIVMTSRGCPSKCSFCGNPVLWGRKIRFYSTDYCIDMFRKALARLPVPYLMIADDTFTANQQRTLNMCDAIIGNKLDFLWSCSTRVDAMEDKVLHRMRRAGCQEIMIGVESGSPEILERIHKGITPEMVLTVTRAAKKYGMLVHYYMMVINRGETPDTLQASIDLIKAGRPNSYDLTPLMFLPGTEDYGHLCEQQGLTSDIFFRNDFMDISVERKRKKDLDTVMQHLYCSIGTIGGYEYTVAEREAVVEHLPDVPTVHVELANAYLRAGQLDKATAALTRAEELGFPIGNIILNQHACIALARNQIDTSLDFLERACRSFPDVTVKGNYDKLAAWIDSRTSGQVKPCLLCDSVRAQDFVFRADETAP | failed |
| PQLVRTHEDVPGPVGHLSFSEILDTSLKVSWQEPGEKNGILTGYRISWEEYNRTNTRVTHYLPNVTLEYRVTGLTALTTYTIEVAAMTSKGQGQVSASTISSGVPP | not failed |
| MMRDSPSIQGTLDAATQHALLAGRHADPFSVLGPHQAGAHTVVRVLAPGARTVMAVLPGGQRTPLLPMQPGLFENTVPGLQPGAPAAYRLCIEWEGGIQHTADPYAFGPVLD | failed |
| MNRKILVTGATGSNGTEIVKRLAAKNVQVRAMVRDFDRAKKIAFPNVEVVEGNFDRPETLLEALAEVDRAFLLTNSTERAEAQQLAFVDAARQNGVKHIVKLSQFAADAHSPVRFLRYHAAVEAAIQGSGMTYTFLRPNLFMQGLLNFQSTITSQNAFYAAISDAKVSVVDVRDIADVAVVALTETEHEGKIYNLTGPQALTHAEMAEQLSAALNRQIAFVDIPSEVMRDQLLNIGMPPWQADGVIEDYAHYRRNEAAAVSSGIQDAIGKEPRSFNTFACDYAAMFG | failed |
| MPRAPRCRAVRSLLRSHYREVLPLATFVRRLGPQGWRLVQRGDPAAFRALVAQCLVCVPWDARPPPAAPSFRQVSCLKELVARVLQRLCERGAKNVLAFGFALLDGARGGPPEAFTTSVRSYLPNTVTDALRGSGAWGLLLRRVGDDVLVHLLARCALFVLVAPSCAYQVCGPPLYQLGAATQARPPPHASGPRRRLGCE | failed |
| KTMKMRKFTIADASLERSPGQEADISVGNLVDERHGGPITIGYGRYAPGQSLTETMAVDDVMIVLEGRLSVSTDGETVTAGPGEIVYMPKGETVTIRSHEEGALTAYVTYPHWRPAHA | not failed |
| MSLTAIHRPTWVSVDLDAAAHNLQEIREWTKAKKVYAVLKADGYGLGAIPLAKAFQETASADALIVSNLDEALELRQADLTLPIWVLGAWDYSDLKLFIDHDIVITIPSLAWLQNLPDFEGTLKVSLAIDTGMTRIGFDKADEISAAKKIIDKNPQLDLFSVYTHFATADEAGEKSKAYFEEQLRRWQELTINQGFDPSLFSMANSATCIWHHDDPRISFAAIRPGQLISGVNVSNGELKMPPNLHLERIFSVCSEIADVRFVKKDQSLSYGASERMPEDGYVATLPFGYNDGWLRRMQKSSVIINGKRMPIIGRITMDQTMVKLDRKYPIGTRVTLIGKDGGEQITVEEVANYSHTIVDEIQTTLAPRIKRIYTGDLAEVIGANYGEGHHHHHH | not failed |
| MIRAYKFLLRPTVRQAQALAEMLRDHCSLYNAALQERRDAWRHPSKTTVKYGGQSAQLKDIRAFDPERQGRWSFSSQQATLRRLDKAFAAFFRRVKSGETPGYPRFRGVNWFDTVDFPKDGDGCRWNSTPHDPATRVRLQGVGHVKVNQHRPVAGRVKTVSVKREGRKWFVVLTAEQDQPEPLPATGSAAGIDLGIANFLADSGGGFVPNPRHGRRAADKLQAAQQALARFPRRKAKDRTANHRRAVGKVAQLHGKVRRQRLDHAHKTALGLVRAHDFIAHEDLRIRNMSKAPAPKPDPDKPGTFLPNGAAAKAGLNKSINDAGWGVFLTILHAKAESAGREVIAVDPRDTSRTCPECGHTAKENRPTQEKFHCVACGHHAHADTVAATNVLRAGLVRRNANPA | failed |
| MEIKAYKKKNGTTAYKFKAYIGKKNGKSQYAEKSGFKTKADARAALHNIQEEIDNPTPKSSMTFKELYDEWLLVYEKEVQNSTYYKTTRAFEKHVLPVIGSTKLSDFTPMELQNFRNDLSEKLKFARKLFGMVRKVFNHAALLSYIQANPALPVTSQGIKKKVEEKKDFYDTDELRDFMALVEKTNDIKKIALFRILAFTGIRKGELLALEWKDYRKSTLDINKAISHSPVGYEILPPKANSNRLLSLDEKTCKILDELHQTYPESTRIFESENGGMLSPSKPRKWLLEITKEKEIEPIRIHAFRHTHASLLFESGMSLKQVQYRLGHADLKTTMNIYTHITKFAKDKIGQQFSDYIDF | failed |
